B1: MBPVinc8 (maltose binding protein fused to vinculin tail residues 809-1063) (domain or fragment)
chain: SDPGLQKSFLDSGYRILGAVAKVREAFQPQEPDFPPPPPDLEHLHLTDELAPPKPPLPEGEVPPPRPPPPEEKDEEFPEQKAGEAINQPMMMAARQLHDEARKWSSKGNDIIAAAKRMALLMAEMSRLVRGGSGNKRALIQCAKDIAKASDEVTRLAKEVAKQCTDKRIRTNLLQVCERIPTISTQLKILSTVKATMLGRTNISDEESEQATEMLVHNAQNLMQSVKETVREAEAASIKIRTDAGFTLRWVRKTP
B2: gizzard vinculin (intact, 116 kD) (natural protein)
chain: MPVFHTRTIESILEPVAQQISHLVIMHEEGEVDGKAIPDLTAPVSAVQAAVSNLVRVGKETVQTTEDQILKRDMPPAFIKVENACTKLVRAAQMLQADPYSVPARDYLIDGSRGILSGTSDLLLTFDEAEVRKIIRVCKGILEYLTVAEVVETMEDLVTYTKNLGPGMTKMAKMIDERQQELTHQEHRVMLVNSMNTVKELLPVLISAMKIFVTTKNTKSQGIEEALKNRNFTVEKMSAEINEIIRVLQLTSWDEDAWASKDTEAMKRALALIDSKMNQAKGWLRDPNAPPGDAGEQAIRQILDEAGKAGELCAGKERREILGTCKTLGQMTDQLADLRARGQGATPMAMQKAQQVSQGLDLLTAKVENAARKLEAMTNSKQAIAKKIDAAQNWLADPNGGSEGEEHIRGIMSEARKVAELCEEPKERDDILRSLGEISALTAKLSDLRRHGKGDSPEARALAKQIATSLQNLQSKTNRAVANTRPVKAAVHLEGKIEQAQRWIDNPTVDDRGVGQAAIRGLVAEGRRLANVMMGPYRQDLLAKCDRVDQLAAQLADLAARGEGESPQARAIAAQLQDSLKDLKARMQEAMTQEVSDVFSDTTTPIKLLAVAATAPSDTPNREEVFEERAANFENHAARLGATAEKAAAVGTANKTTVEGIQATVKSARELTPQVVSAARILLRNPGNQAAYEHFETMKNQWIDNVEKMTGLVDEAIDTKSLLDASEEAIKKDLDKCKVAMANMQPQMLVAGATSIARRANRILLVAKREVENSEDPKFREAVKAASDELSKTISPMVMDAKAVAGNISDPGLQKSFLDSGYRILGAVAKVREAFQPQEPDFPPPPPDLEHLHLTDELAPPKPPLPEGEVPPPRPPPPEEKDEEFPEQKAGEAINQPMMMAARQLHDEARKWSSKGNDIIAAAKRMALLMAEMSRLVRGGSGNKRALIQCAKDIAKASDEVTRLAKEVAKQCTDKRIRTNLLQVCERIPTISTQLKILSTVKATMLGRTNISDEESEQATEMLVHNAQNLMQSVKETVREAEAASIKIRTDAGFTLRWVRKTPWYQ

Target: filamentous actin (F-actin) from rabbit skeletal muscle (rabbit, UniProt P68135 1-377)
Assay: co-sedimentation

Binder	stoichiometry N
B1	1.18 mol MBPVinc8 per mol actin
B2	0.5 mol vinculin per mol actin
